Data reported in paper doi:10.1101/504373, “Pyrophosphate modulates stress responses via SUMOylation” (bioRxiv, 2018).

Target: the molecule itself
Test: immunoblot after SDS-PAGE of extracts made without DTT; total seedling protein extracted in the presence of NEM to inhibit deSUMOylation; anti-ICE1; both bands absent in ice1-2; monomer (50kD) only with DTT (5 mM) and without NEM

B1: INDUCER OF CBF EXPRESSION 1 (ICE1) (natural protein, UniProt Q9LSE2 1-494, looked up)
chain: MGLDGNNGGGVWLNGGGGEREENEEGSWGRNQEDGSSQFKPMLEGDWFSSNQPHPQDLQMLQNQPDFRYFGGFPFNPNDNLLLQHSIDSSSSCSPSQAFSLDPSQQNQFLSTNNNKGCLLNVPSSANPFDNAFEFGSESGFLNQIHAPISMGFGSLTQLGNRDLSSVPDFLSARSLLAPESNNNNTMLCGGFTAPLELEGFGSPANGGFVGNRAKVLKPLEVLASSGAQPTLFQKRAAMRQSSGSKMGNSESSGMRRFSDDGDMDETGIEVSGLNYESDEINESGKAAESVQIGGGGKGKKKGMPAKNLMAERRRRKKLNDRLYMLRSVVPKISKMDRASILGDAIDYLKELLQRINDLHNELESTPPGSLPPTSSSFHPLTPTPQTLSCRVKEELCPSSLPSPKGQQARVEVRLREGRAVNIHMFCGRRPGLLLATMKALDNLGLDVQQAVISCFNGFALDVFRAEQCQEGQEILPDQIKAVLFDTAGYAGMI
notes: Two bands were seen, a non-modified (100kD) and a modified (130kD) dimer; source: endogenous, total protein extract of liquid grown Col-0 seedlings
With B1 the “stoichiometry N” value was 2.
